According to the RNAGym collection of RNA variant scans (doi:10.7554/elife.80360):

B1: HDV Ribozyme (parent)
chain: GGCCGGCAUGGUCCCAGCCUCCUCGCUGGCGCCGGCUGGGCAACAUUCCGAGGGGACCGUCCCCUCGGUAAUGGCGAAUGGGACCCA

Variants of: B1
Assay: self-cleavage, relative activity (ratio to wild type); higher = more cleavage; co-transcriptional

Q: With GGCCGGCAUGGUCCCAGCCUCCUCGCUGGCGCCCGCUGGGCAACAUUCCGAGGGCACCGUCCCCUCGGUAAUGGCGAAUGGGACCCA [G34C G55C] as the variant, how does the self-cleavage read?
A: 0.261

Q: Which self-cleavage does the source give for GGCCGGCAUGGUCCCAGCCUCCUCGCUGGCGCCCGCGGGGCAACAUUCCGAGGGGACCGUCCCCUCGGUAAUGGCGAAUGGGACCCA [G34C U37G] here?
A: 0

Q: For GGCCGGCAUGGUCCCAGCCUCCUCGCUGGCGCCCGCCGGGCAACAUUCCGAGGGGACCGUCCCCUCGGUAAUGGCGAAUGGGACCCA [G34C U37C], which self-cleavage is on record?
A: 0.156

Q: With GGCCGGCAUGGUCCCAGCCUCCUCGCUGGCGCCCGCUGGGCAACAUUCCUAGGGGACCGUCCCCUCGGUAAUGGCGAAUGGGACCCA [G34C G50U] as the variant, how does the self-cleavage read?
A: 0.175

Q: With GGCCGGCAUGGUCCCAGCCUCCUCGCUGGCGCCCGCUGGGCAACAUUCCGAGGGGACCGUCCUCUCGGUAAUGGCGAAUGGGACCCA [G34C C63U] as the variant, how does the self-cleavage read?
A: 0.287

Q: With GGCCGGCAUGGUCCCAGCCUCCUCGCUGGCGCCCGCUGGGCAACAUUCCGAGGGGACCGACCCCUCGGUAAUGGCGAAUGGGACCCA [G34C U60A] as the variant, how does the self-cleavage read?
A: 0.306

Q: For GGCCGGCAUGGUCCCAGCCUCCUCGCUGGCGCCCGCUGGGCAACAUUCCGAGGGGACCGUCCCCUCGCUAAUGGCGAAUGGGACCCA [G34C G68C], which self-cleavage is on record?
A: 0.128

Q: Which self-cleavage does the source give for GGCCGGCAUGGUCCCAGCCUCCUCGCUGGCGCCUGCUGGGCAAAAUUCCGAGGGGACCGUCCCCUCGGUAAUGGCGAAUGGGACCCA [G34U C44A] here?
A: 0.0545

Q: For GGCCGGCAUGGUCCCAGCCUCCUCGCUGGCGCCCGCUGUGCAACAUUCCGAGGGGACCGUCCCCUCGGUAAUGGCGAAUGGGACCCA [G34C G39U], which self-cleavage is on record?
A: 0.156

Q: With GGCCGGCAUGGUCCCAGCCUCCUCGCUGGCGCCCGCUGGGCAACAUUCCGAGGGGACCGUCCCCUCGGUAAUGGCGAAUGGGACGCA [G34C C85G] as the variant, how does the self-cleavage read?
A: 0.125

Q: For GGCCGGCAUGGUCCCAGCCUCCUCGCUGGCGCCCGCUGGGCAACAUUCCGAGGGGACCGUCCCCUCGGUAAUGGCGAAUGGGACACA [G34C C85A], which self-cleavage is on record?
A: 0.249

Q: Which self-cleavage does the source give for GGCCGGCAUGGUCCCAGCCUCCUCGCUGGCGCCCCCUGGGCAACAUUCCGAGGGGACCGUCCCCUCGGUAAUGGCGAAUGGGACCCA [G34C G35C] here?
A: 0.246

Q: For GGCCGGCAUGGUCCCAGCCUCCUCGCUGGCGCCUGGUGGGCAACAUUCCGAGGGGACCGUCCCCUCGGUAAUGGCGAAUGGGACCCA [G34U C36G], which self-cleavage is on record?
A: 0.0302

Q: For GGCCGGCAUGGUCCCAGCCUCCUCGCUGGCGCCCGCUGGGCAACAGUCCGAGGGGACCGUCCCCUCGGUAAUGGCGAAUGGGACCCA [G34C U46G], which self-cleavage is on record?
A: 0.0504

Q: For GGCCGGCAUGGUCCCAGCCUCCUCGCUGGCGCCCGCUGGGCAACAUUCCGAGGGGACCGUCCCCUCGGUAAUGGCGAAUGGCACCCA [G34C G82C], which self-cleavage is on record?
A: 0.117

Q: Which self-cleavage does the source give for GGCCGGCAUGGUCCCAGCCUCCUCGCUGGCGCCUGCUGGGCAACUUUCCGAGGGGACCGUCCCCUCGGUAAUGGCGAAUGGGACCCA [G34U A45U] here?
A: 0.0378

Q: With GGCCGGCAUGGUCCCAGCCUCCUCGCUGGCGCCUGCUGGGCAACAUUCUGAGGGGACCGUCCCCUCGGUAAUGGCGAAUGGGACCCA [G34U C49U] as the variant, how does the self-cleavage read?
A: 0.136

Q: Which self-cleavage does the source give for GGCCGGCAUGGUCCCAGCCUCCUCGCUGGCGCCCGCUGGGCAACAUUCCGAGGGGACCGUCCCCUCGGUAACGGCGAAUGGGACCCA [G34C U72C] here?
A: 0.19

Q: For GGCCGGCAUGGUCCCAGCCUCCUCGCUGGCGCCUGCUGGGCAACAUUCCGAGGGGAGCGUCCCCUCGGUAAUGGCGAAUGGGACCCA [G34U C57G], which self-cleavage is on record?
A: 0.178

Q: With GGCCGGCAUGGUCCCAGCCUCCUCGCUGGCGCCUGCUGGGCAACAUUCCGAGGGGACCGUCCCCUCGGUAAUGGCGAUUGGGACCCA [G34U A78U] as the variant, how does the self-cleavage read?
A: 0.121

Q: With GGCCGGCAUGGUCCCAGCCUCCUCGCUGGCGCCCGCUGGGCAACAUUCCGAGAGGACCGUCCCCUCGGUAAUGGCGAAUGGGACCCA [G34C G53A] as the variant, how does the self-cleavage read?
A: 0.229

Q: Which self-cleavage does the source give for GGCCGGCAUGGUCCCAGCCUCCUCGCUGGCGCCUGCUGGGUAACAUUCCGAGGGGACCGUCCCCUCGGUAAUGGCGAAUGGGACCCA [G34U C41U] here?
A: 0.131

Q: With GGCCGGCAUGGUCCCAGCCUCCUCGCUGGCGCCCGCUGGGCAACAUUCCGAGGGGACCGUCGCCUCGGUAAUGGCGAAUGGGACCCA [G34C C62G] as the variant, how does the self-cleavage read?
A: 0.0639

Q: For GGCCGGCAUGGUCCCAGCCUCCUCGCUGGCGCCCGCUGGGCAACAUUCCGAAGGGACCGUCCCCUCGGUAAUGGCGAAUGGGACCCA [G34C G52A], which self-cleavage is on record?
A: 0.17

Q: Which self-cleavage does the source give for GGCCGGCAUGGUCCCAGCCUCCUCGCUGGCGCCCGCUGGGCAACAUUCCGAGGUGACCGUCCCCUCGGUAAUGGCGAAUGGGACCCA [G34C G54U] here?
A: 0.123

Q: With GGCCGGCAUGGUCCCAGCCUCCUCGCUGGCGCCCGCUGGGCAACAUUCCGAGGGGACCGUCCCCUCGGUAAUGGCGAAUGGGAUCCA [G34C C84U] as the variant, how does the self-cleavage read?
A: 0.217

Q: With GGCCGGCAUGGUCCCAGCCUCCUCGCUGGCGCCCGCUGGGCAACAUUCCGAGGGGACCGUCCCCUCGGUAAUGGCGAAUGAGACCCA [G34C G81A] as the variant, how does the self-cleavage read?
A: 0.16

Q: Which self-cleavage does the source give for GGCCGGCAUGGUCCCAGCCUCCUCGCUGGCGCCUGCUGGGCGACAUUCCGAGGGGACCGUCCCCUCGGUAAUGGCGAAUGGGACCCA [G34U A42G] here?
A: 0.0449

Q: For GGCCGGCAUGGUCCCAGCCUCCUCGCUGGCGCCUGCUGGGCAACAUUCCGAGGGGUCCGUCCCCUCGGUAAUGGCGAAUGGGACCCA [G34U A56U], which self-cleavage is on record?
A: 0.18

Q: For GGCCGGCAUGGUCCCAGCCUCCUCGCUGGCGCCCGCUGGGCAACAUUCCGAGGGGACCGUCCCCUCGGUAAUGGCAAAUGGGACCCA [G34C G76A], which self-cleavage is on record?
A: 0.163

Q: For GGCCGGCAUGGUCCCAGCCUCCUCGCUGGCGCCCGCUGGGCAACAUUCCGAGGGGACCGUCCCCUCGGUAAUGGCGAACGGGACCCA [G34C U79C], which self-cleavage is on record?
A: 0.227

Q: With GGCCGGCAUGGUCCCAGCCUCCUCGCUGGCGCCCGCUGGGCAACAUUCCGAGGGGACCGUCCCCUCGGAAAUGGCGAAUGGGACCCA [G34C U69A] as the variant, how does the self-cleavage read?
A: 0.0739
